Consider nine variants from paper PMC8373988 (2021).

To fix the notation:
B1: FICD^H363A (residues 104–445), dimeric, catalytically inactive [human] / AMPylated biotinylated-AviTag-haBiP^T229A-V461F (residues 27–635) [modified: AMP covalently attached to Thr518 (Thr518-AMP); biotin on the N-terminal Avi-tag; AMP … (parent complex)
chain 1: LEARAALNQALEMKRQGKREKAQKLFMHALKMDPDFVDALTEFGIFSEEDKDIIQADYLYTRALTISPYHEKALVNRDRTLPLVEEIDQRYFSIIDSKVKKVMSIPKGNSALRRVMEETYYHHIYHTVAIEGNTLTLSEIRHILETRYAVPGKSLEEQNEVIGMHAAMKYINTTLVSRIGSVTISDVLEIHRRVLGYVDPVEAGRFRTTQVLVGHHIPPHPQDVEKQMQEFVQWLNSEEAMNLHPVEFAALAHYKLVYIAPFIDGNGRTSRLLMNLILMQAGYPPITIRKEQRSDYYHVLEAANEGDVRPFIRFIAKCTETTLDTLLFATTEYSVALPEAQP
chain 2: not shown
B2: FICD^L258D-H363A (residues 104–445), monomeric, catalytically inactive [human] / AMPylated biotinylated-AviTag-haBiP^T229A-V461F (residues 27–635) [modified: AMP covalently attached to Thr518 (Thr518-AMP); biotin on the N-terminal Avi-tag; … (parent complex)
chain 1: B1 chain 1 with L155D
chain 2: not shown

Numbering of substitutions follows the chain as printed. Names and notes keep the numbering of the source.

The variants in the first assay derive from B1. In words: BLI; 50 nM FICD analyte, oxidised (TPRox); immobilised BiP activated in 2 mM ATP; read at end of apo association (600 s); parent: 0.24; read off a plot. Background: BLI is a label-free optical method that tracks binding on a fibre tip over time.
In the case of chain 1 D57C, chain 1 T80C, chain 1 C318S, the response was roughly 0.31 nm.

Variants of B1 are the subject of the next assay. In words: BLI; 50 nM FICD analyte, oxidised (TPRox); immobilised BiP-AMP activated in 2 mM ATP; read at end of apo association (600 s); parent: 0.74; read off a plot.
Consider chain 1 D57C, chain 1 T80C, chain 1 C318S, for which the response is roughly 0.79 nm.

In a further assay the parent is B1. As to the kind of experiment: BLI; 50 nM FICD analyte; immobilised BiP activated in 2 mM ATP; read at end of apo association (600 s); parent: 0.2; read off a plot.
Regarding chain 1 L155D, the response was roughly 0.75 nm.

The variants in the next assay derive from B1. As to the kind of experiment: BLI; 50 nM FICD analyte; immobilised BiP-AMP activated in 2 mM ATP; read at end of apo association (600 s); parent: 0.92; read off a plot.
For chain 1 L155D, the response was roughly 0.75 nm.

A further assay covers variants of B1. As to the kind of experiment: BLI; 50 nM FICD analyte; immobilised BiP activated in 2 mM ATP; read at end of apo association (600 s); parent: 0.24; read off a plot.
Consider chain 1 K21E, for which the response was roughly 0.01 nm. On to chain 1 E2R, for which the response was roughly 0.04 nm.

The variants in the next assay derive from B1. As to the kind of experiment: BLI; 50 nM FICD analyte; immobilised BiP-AMP activated in 2 mM ATP; read at end of apo association (600 s); parent: 0.74; read off a plot.
chain 1 K21E: the response is roughly 0.43 nm. On the same count and under the same terms, as for chain 1 H28A, the figure is roughly 0.66 nm; as for chain 1 E2R, roughly 0.73 nm; as for chain 1 K21E, chain 1 H28A, roughly 0.03 nm.

The variants in another assay derive from B2. In words: BLI; 50 nM FICD analyte; immobilised BiP-AMP activated in 2 mM ATP; read at end of apo association (600 s); parent: 0.7; read off a plot.
As to chain 1 H28A, the response was roughly 0.2 nm.

Consider chain 1 E2R, for which the response is roughly 0.12 nm.

The variants in another assay derive from B2. In words: BLI; 50 nM FICD analyte, oxidised (TPRox); immobilised BiP activated in 2 mM ATP; read at end of apo association (600 s); parent: 0.68; read off a plot.
As to chain 1 D57C, chain 1 T80C, chain 1 C318S, the response was roughly 0.92 nm.

Variants of B2 are the subject of the next assay. In words: BLI; 50 nM FICD analyte, oxidised (TPRox); immobilised BiP-AMP activated in 2 mM ATP; read at end of apo association (600 s); parent: 0.7; read off a plot.
For the variant chain 1 D57C, chain 1 T80C, chain 1 C318S, the response was roughly 0.91 nm.
